From publication PMC3317677 (International Journal of Molecular Sciences, 2012)

T1: DENV1 envelope protein domain III (EDIII, aa295-395) (Dengue virus type 1, Hawaii, strain)
T1 construct: also called DENV1 EDIII; EDIII from DENV1
T1 chain: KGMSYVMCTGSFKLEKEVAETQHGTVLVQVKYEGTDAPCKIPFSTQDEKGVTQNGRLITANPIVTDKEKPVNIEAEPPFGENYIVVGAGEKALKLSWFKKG


What was measured:
[1] = biological target: DENV2 envelope (E) protein in DENV2 infected BHK-21 cells (Dengue virus type 2, GenBank EU081177.1, UniProt A9LIC9, strain); assay: immunostaining of cells or tissue; conditions: one partner purified
[2] = biological target: T2, DENV4 envelope protein domain III (EDIII, aa295-395) (Dengue virus type 4, …, UniProt Q58HT7, strain); assay: ELISA; conditions: both partners purified
T2 construct: also called DENV4 EDIII; EDIII from DENV4

[3] = biological target: T1, DENV1 envelope protein domain III …; assay: ELISA; conditions: both partners purified
[4] = biological target: T3, DENV3 envelope protein domain III (EDIII, aa295-395) (Dengue virus type 3, …, UniProt P27915, strain); assay: ELISA; conditions: both partners purified
T3 construct: also called DENV3 EDIII; EDIII from DENV3

Binder	binding result [1]	binding result [2]	fold stronger interaction than the C9 Fab (average) [3] [times]	fold stronger interaction than the C9 Fab (average) [4] [times]	binding result [3]	binding result [4]
C9 IgG (chimeric mouse/human IgG) (antibody, V domains shown, Bivalent IgG) VH: EVQLQQSGAELVRPGASVKLSCKALGYRFTDYEMYWVKQTPAHGLEWIGGIHPRSGNTAYNQKFKDKATLTADKSSSTAYMELSSLTSEDSAVYYCTTSLYWGQGTLVTVSA VL: DVLMTQTPLSLPVILGDQASISCRSSQSLVHSNGNTYLHWYLQKPGQSPKLLIYSIFNRFSGVPDRFSGSGSGTDFTLKISRVEAEDLGVYFCSQGTHVPWTFGGGTKLEIK	binds	no binding	~30	~30		
C9 Fab (chimeric mouse/human Fab) (Fab, V domains shown) VH: EVQLQQSGAELVRPGASVKLSCKALGYRFTDYEMYWVKQTPAHGLEWIGGIHPRSGNTAYNQKFKDKATLTADKSSSTAYMELSSLTSEDSAVYYCTTSLYWGQGTLVTVSA VL: DVLMTQTPLSLPVILGDQASISCRSSQSLVHSNGNTYLHWYLQKPGQSPKLLIYSIFNRFSGVPDRFSGSGSGTDFTLKISRVEAEDLGVYFCSQGTHVPWTFGGGTKLEIK		no binding				
F1 Fab (chimeric mouse/human Fab) (Fab, V domains shown) VH: EVKLVESGAELVRPGASVKLSCKALGYRFTDYEMYWVKQTPAHGLEWIGGIHPRSGNTAYNQKFKDKATLTADKSSSTAYMELSSLTSEDSAVYYCTTSLYWGQGTLVTVSA VL: DILMTQSPLSLPVSLGDQASISCRSSQSLVHSTGNTYLHWYLQKPGQSPKLLIYKVSNRFSGVPDRFSGSGSGTDFTLKISRVEAEDLGVYFCSQGTHVPWTFGGGTKLELK					binds	binds
